Laboratory results from the supplement of paper PMC9170038.

Test system: MS2 coat protein
Test: apparent KD of MS2 coat protein; designed switch direction (-1 OFF switch, 1 ON switch): -1; higher = weaker reporter binding
Summary of the method: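 Each step of the titration lasted 0.8–1.5 h at the lowest concentration and 10–20 min at the highest. The protein, SNAP-549-labelled MS2 coat protein, went from 0.7 or 1.5 nM doubling to 3 µM over RNA switches transcribed on Illumina chips by stalled E. coli RNA polymerase. Normalised cluster fluorescence was curve-fitted, and the per-design median over clusters is given as apparent KD.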

[1] = Eterna round: R95, input ligand: FMN 200 uM
[2] = Eterna round: R95, input ligand: microRNA oligo, concentration not stated
[3] = Eterna round: R95, input ligand: none
[4] = input ligand: microRNA oligo, concentration not stated

Row | Sequence | apparent KD of MS2 coat protein (input ligand: FMN 200 uM) | apparent KD of MS2 coat protein (input ligand: none) | apparent KD of MS2 coat protein [2] | other results
1 | CAAUAACAAGCGAGAUCCUACAUGAGGAUCACCCAUGUGCUCGUCUUAAAAGGUACUGUGACGAAAGUCACGGUACC [Eli 87 + Mat D67 3] (Eterna round: R97, puzzle: Sensor, turn-off variant 1) | 16.9 nM | 23 nM | – | –
2 | UGCGGGCUUUUGAGACCUCACAUGAGGAUCACCCAUGUGCUUGUCUUGUGGGUCGGUAGGUCGUUGGCUGACUGACG [Sensor-V1 #97] (Eterna round: R97, puzzle: Sensor, turn-off variant 1) | 15.5 nM | 13.4 nM | – | –
3 | UAGUGGGUACGAAGGAGUAGUUUGAGCGUACGUUCUGUAACAUGAGGAUCACCCAUGUAGCUUUUUGCUCGACUUAU [JR_SV3TOV2_Sub037] (puzzle: Sensor v3, turn-off variant 2) | – | – | 55.7 nM | apparent KD of MS2 coat protein [1]: 28.9 nM; apparent KD of MS2 coat protein [3]: 29.4 nM
4 | UUUAUAUAGUAAGGAUAUGUAUUAUUUCUAUCAACAGAAGGUACUGACAUGAGGAUCACCCAUGUUUUAGUGUGGGCAUGUAGU [JMF's solution 97] (Eterna round: R96, puzzle: Exclusion NG 1) | – | – | – | apparent KD of MS2 coat protein [4]: 200 nM
5 | ACUGGUGCAGGAUAUGCAAUCGUGCUUCGGCACGUAAGGUCACAUGAGGAUCACCCAUGUAGAAGGGCACCAGU [E2/4-D1] (Eterna round: R97, puzzle: Exclusion 2) | 33.2 nM | 12.6 nM | – | –
6 | GGUCGGCGAGGAUAUACAUGAGGAUCACCCAUGUGAUAGAUUAUCGCGAAAGCGUAAUGUAGAAGGCGCUGACG [jl-ex3-4.10 jl mod] (Eterna round: R97, puzzle: Exclusion 3) | 1280 nM | 40.7 nM | – | –
7 | AAUAAAGGCCGAGGAUAUCGGAAAGGAAGUGUACGAGAAGGCGGCAAAAGAACAUGAGGAUCACCCAUGUGGGCCGAUCUUCCG [PowerStrip EXNG 1.2] (Eterna round: R96, puzzle: Exclusion NG 1) | 26.4 nM | 18 nM | – | apparent KD of MS2 coat protein [4]: 10 nM
8 | CAAAAGCUAGGAUAUCGUAAACAAGACAUGAGGAUCACCCAUGUGUCCGUGGCUGACCUCCGAGAAGGAGCAAUAU [Bilate] (puzzle: Exclusion 5) | – | – | 16.8 nM | apparent KD of MS2 coat protein [1]: 23.6 nM; apparent KD of MS2 coat protein [3]: 18.6 nM
9 | GUAAACGCAGAGGAUAUAUCAGAUCAAAGCUGCAUAGAAGGCUGCACAUGAGGAUCACCCAUGUGGUCUUUAAG [Mat - Exclusion 6 - JL Mod - D4] (Eterna round: R97, puzzle: Exclusion 6) | 128 nM | 18.4 nM | – | –
10 | CCGGUUGGCGCAGGAUAUACAUGAGGAUCACCCAUGUUCGUGAGGAUCACCCAUGAGUUUUUGUUGUAGAAGGGUGGCCCGGCC (Eterna round: R96, puzzle: Exclusion NG 2) | 24.4 nM | 28.5 nM | – | apparent KD of MS2 coat protein [4]: 16 nM
11 | AACAUGUGAGGAUAUGAGAACAGUCCGGAGGACUGUGUAAAUUAGAAGGCACAUGAGGAUCACCCAUGUGACCU [Laonar] (Eterna round: R97, puzzle: Exclusion 4) | 32.6 nM | 15.8 nM | – | –
12 | UUAUGAGAGCAGGAUAUCUUAUAUUUUUUUUAAAGAGAAGGGCUCACAUGAGGAUCACCCAUGUGGUCCUAGAU [LRO-Excl6-21-mod of 4.86 by jal] (Eterna round: R97, puzzle: Exclusion 6) | 234 nM | 36.8 nM | – | –
13 | CCGGAAAUAGAGGAUAUAGGAGUCGAUAGACUCCUAGAAGGCUAUACAUGAGGAUCACCCAUGUGUCCUACCGG [Fiskers Ex 6 - 65] (puzzle: Exclusion 6) | – | – | 16.6 nM | –
14 | UCUAGACAUGAGGAUCACCCAUGUGAGGAUAUGAUGCGAAUAAAGAAAGAAGAAAGCAUCAGAAGGCACAUAUG [Fiskers Ex 1 - 3] (puzzle: Exclusion 1) | – | – | 116 nM | apparent KD of MS2 coat protein [1]: 210 nM; apparent KD of MS2 coat protein [3]: 191 nM
15 | AAAACAAACUUUUUGCUCGUCUUAUAUGACGCUCGAGUCACAUGAGGAUCACCCAUGUCUUCCUGUUUGAUAGUUGA [JR_SV3TOV2_Sub055] (puzzle: Sensor v3, turn-off variant 2) | – | – | 113 nM | apparent KD of MS2 coat protein [1]: 113 nM; apparent KD of MS2 coat protein [3]: 142 nM
16 | UAUUAGCAAGCGAGUCUUCACAUGAGGAUCACCCAUGUGCUCGUCUUAUAAGGUACUGUGACGAAAGUCACGGUACC [Eli 91 v32] (Eterna round: R97, puzzle: Sensor, turn-off variant 1) | 15.4 nM | 14.8 nM | – | –
17 | GUCACAUGGACAUAGGAUCACAUGAGGAUCACCCAUGUGACUAACAAGCUUUUUGCUCGUCUUAUGUCCAUGUGAAG [Stov1/15-A1] (Eterna round: R97, puzzle: Sensor, turn-off variant 1) | 13.2 nM | 11.7 nM | – | –
18 | ACAAGAUCGGAAGGAUAUUGUACAUGAGGAUCACCCAUGUAAUAAAUGAGGAUCACGGAUGUAGUCAAGAAGGUCCGGAUAAGA [Ostracism 3 - Jieux - Exclusion NG 2] (Eterna round: R96, puzzle: Exclusion NG 2) | 36.9 nM | 43.8 nM | – | apparent KD of MS2 coat protein [4]: 41.2 nM

Row | Sequence | apparent KD of MS2 coat protein (input ligand: FMN 200 uM) | apparent KD of MS2 coat protein (input ligand: none) | apparent KD of MS2 coat protein [2] | other results
19 | CCUCCACAUGAGGAUCACCCAUGUCAGGAUAUCGUGUGUGCGUUUUCGGUCUUUCGCGCGAGAAGGGACGACUG (puzzle: Exclusion 1) | – | – | 27.5 nM | –
20 | UUGUUGUGUGUAGGAUAUGCAUAUUAUUAUUAUGCAGAAGGACAUGAGGAUCACCCAUGUAUAUUAUUAUUAUAUAUUAUAUAU [Title] (Eterna round: R96, puzzle: Exclusion NG 1) | – | – | – | apparent KD of MS2 coat protein [4]: 22.6 nM
21 | CAGUACUGAGGAUAUACAUGAGGAUCACCCAUGUGUGUGAAAUUUAUGUGGUCGUAAUGUAGAAGGCAGUACUG [JR_Ex3_Sub028] (Eterna round: R97, puzzle: Exclusion 3) | 30.5 nM | 62.9 nM | – | –
22 | AAGAAGAUAGGAUAUACGAGGAGAGAAGAGAAGAAAGGAGGACAUGAGGAUCACCCAUGUAGAAGGAUCAGGAA [JR_Exclu2_Sub061] (puzzle: Exclusion 2) | – | – | 41 nM | apparent KD of MS2 coat protein [1]: 50.2 nM; apparent KD of MS2 coat protein [3]: 40.5 nM
23 | ACUUAUAGAGGAUAUACAGUUAAUUACAUGAGGAUCACCCAUGUUCUUCAAUGUAUAUAAGUAGAAGGCUAAAGGA [Mat - Exclusion 5 - Eli Mod - D6] (Eterna round: R97, puzzle: Exclusion 5) | 198 nM | 19.3 nM | – | –
24 | AAUAAUCAUGUAGGAUAUGCGUGGCGAAGCUAUGCAGAAGGACAUGAGGAUCACCCAUGUUCUAGCGUCUGCGUACAGAUGCUA [Mat - Exclusion NG 1 - Mod of JL - D79] (Eterna round: R96, puzzle: Exclusion NG 1) | 123 nM | 37.1 nM | – | apparent KD of MS2 coat protein [4]: 36.6 nM
25 | UAAAAGCUAGGAUAUACAUGAGGAUCACCCAUGUAUUAGGGCAUGAAAUCGGUCCCACGUAGAAGGAGCGACAC [Dilaxeed] (Eterna round: R97, puzzle: Exclusion 3) | 105 nM | 24.5 nM | – | –
26 | AAGAGGCUAGGAUAUACAUGAGGAUCACCCAUGUGAGGGCACGGCCGGCGCGUGGCCGGUAGAAGGAGUCAAAA [Exc;s3-VIII] (puzzle: Exclusion 3) | – | – | 17.5 nM | –
27 | UUCAUGUAAGGAUAUACCUCGAGCUGAUGAGAGUCUCAAAUGUAGAAGGUACAUGAGGAUCACCCAUGUACAGG [Eternabot (Original) Solution 5] (Eterna round: R97, puzzle: Exclusion 4) | 65.2 nM | 42 nM | – | –
28 | GAGAAGGUAGGAUAUACGAAGAAAAAGGGUAGAAGAAGAACACAUGAGGAUCACCCAUGUAGAAGGACCAAGAG [Mat - Exclusion 2 - Mod of my Tesla design - D17] (puzzle: Exclusion 2) | – | – | 21.5 nM | apparent KD of MS2 coat protein [1]: 38 nM; apparent KD of MS2 coat protein [3]: 22.5 nM
29 | GUCUCGUCAGGAUAUGACGCUACAUUUUCUUUUUAGAAGAGUCAGAAGGGACAUGAGGAUCACCCAUGUGAUUC [Ex4 - 3 - 3] (puzzle: Exclusion 4) | – | – | 310 nM | –
30 | AAAUUAGCAAGUAGGUCCGACAUGAGGAUCACCCAUGUUAUCUGAAAUAACGCUGCAUGAUUGUGCGCUCGUCUUAG [Sensor-V1 #8] (Eterna round: R97, puzzle: Sensor, turn-off variant 1) | 69.1 nM | 73.1 nM | – | –
31 | CGGCAAAGGAAGGAUAUGCUAGACGAUAGUCUAGCAGAAGGUCCUACAUGAGGAUCACCCAUGUGUCCUAGCCG [Mat - Exclusion 6 - Eli Mod - D9] (Eterna round: R97, puzzle: Exclusion 6) | 49.6 nM | 44.3 nM | – | –
32 | AACUCUGAGAAGGAUAUUCAGUGGGAAACGACAGAAGAAGGUUUCACAUGAGGAUCACCCAUGUCGAAUAGUGA [EX6 #75] (Eterna round: R97, puzzle: Exclusion 6) | 46.8 nM | 48.8 nM | – | –
33 | CUUUUGUGAGGAUAUCAGUAGUAGAACAAUAGUACUACUACUGAGAAGGCACAUGAGGAUCACCCAUGUUUCUC [Fiskers Ex 4 Super stable 44 mod 4] (puzzle: Exclusion 4) | – | – | 58.7 nM | –
34 | CCCGGGAGUCAGGAUAUCUCCGAGGAGUAUCAGAGAGAAGGGACUACUUGAGGAUCACCCAAGUAGGUGUAAAA [Enleteerre] (Eterna round: R97, puzzle: Exclusion 6) | 28.8 nM | 20.2 nM | – | –
35 | GCAGGUUAAGUCAGGAUAUACCUAUGGAUACAUAGGUAGAAGGGACAUGAGGAUCACCCAUGUGACUCACCUGC [Fiskers BMX 4 - 59] (puzzle: Brourd's mod of Exclusion 4) | – | – | 25.1 nM | –
